From paper PMC10979024 (Nature Communications, 2024)
Residue numbers refer to the chain shown, from its start.

Experiments:
DvCODH = target: T1, DvCODH (Nitratidesulfovibrio vulgaris, UniProt Q72A99); type: biochemical; details: CO-saturated 50 mM HEPES/NaOH pH 8, 2 mM DTE, 20 mM viologen, 30 °C
T1 construct: gene cooS

[1] = target: the molecule itself; assay: SEC; size exclusion chromatography of the purified enzyme; measured molecular mass compared with the theoretical mass of the dimer

T1 sequence (Q72A99 1-629): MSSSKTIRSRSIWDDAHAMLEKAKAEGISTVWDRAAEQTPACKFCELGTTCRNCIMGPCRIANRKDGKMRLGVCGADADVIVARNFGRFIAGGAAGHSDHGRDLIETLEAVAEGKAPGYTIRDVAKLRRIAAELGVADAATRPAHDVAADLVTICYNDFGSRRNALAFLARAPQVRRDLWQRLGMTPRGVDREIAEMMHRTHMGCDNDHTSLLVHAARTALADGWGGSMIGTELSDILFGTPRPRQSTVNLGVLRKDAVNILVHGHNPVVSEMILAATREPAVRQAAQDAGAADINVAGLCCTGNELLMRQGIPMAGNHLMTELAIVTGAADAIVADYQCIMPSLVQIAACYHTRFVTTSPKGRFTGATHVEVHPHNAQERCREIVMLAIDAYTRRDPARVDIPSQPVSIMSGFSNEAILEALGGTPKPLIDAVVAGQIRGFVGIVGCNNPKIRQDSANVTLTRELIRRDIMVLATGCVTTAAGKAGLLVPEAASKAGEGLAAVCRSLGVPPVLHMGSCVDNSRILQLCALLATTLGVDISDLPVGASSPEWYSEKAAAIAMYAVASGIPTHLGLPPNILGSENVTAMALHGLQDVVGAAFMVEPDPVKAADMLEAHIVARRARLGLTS

C[n+]1ccc(-c2cc[n+](C)cc2)cc1 [MV, methyl viologen]
CO-dependent viologen reduction, relative activity (DvCODH): essential for viologen reduction using the four mediators MV, EV, BV, and diquat (DQ)

B1: ChCODH2 F41A (enzyme, Carboxydothermus hydrogenoformans)
chain: MAKQNLKSTDRAVQQMLDKAKREGIQTVWDRYEAMKPQCGAGETGLCCRHCLQGPCRINPFGDEPKVGICGATAEVIVARGLDRSIAAGAAGHSGHAKHLAHTLKKAVQGKAASYMIKDRTKLHSIAKRLGIPTEGQKDEDIALEVAKAALADFHEKDTPVLWVTTVLPPSRVKVLSAHGLIPAGIDHEIAEIMHRTSMGCDADAQNLLLGGLRCSLADLAGCYMGTDLADILFGTPAPVVTESNLGVLKADAVNVAVHGHNPVLSDIIVSVSKEMENEARAAGATGINVVGICCTGNEVLMRHGIPACTHSVSQEMAMITGALDAMILDYQCIQPSVATIAECTGTTVITTMEMSKITGATHVNFAEEAAVENAKQILRLAIDTFKRRKGKPVEIPNIKTKVVAGFSTEAIINALSKLNANDPLKPLIDNVVNGNIRGVCLFAGCNNVKVPQDQNFTTIARKLLKQNVLVVATGCGAGALMRHGFMDPANVDELCGDGLKAVLTAIGEANGLGGPLPPVLHMGSCVDNSRAVALVAALANRLGVDLDRLPVVASAAEAMHEKAVAIGTWAVTIGLPTHIGVLPPITGSLPVTQILTSSVKDITGGYFIVELDPETAADKLLAAINERRAGLGLPW
notes: Ni-Fe carbon monoxide dehydrogenase 2 (ChCODH2), Carboxydothermus hydrogenoformans, locus Chy_0085; site-directed variant in pET28a; source: E. coli BL21(DE3) with pRKISC, purified (Ni-NTA; size-exclusion chromatography)
stoichiometry N [1]: 2

B2: ChCODH2 wild type (carbon monoxide dehydrogenase 2 of Carboxydothermus hydrogenoformans) (enzyme)
chain: B1 chain with A41F
notes: Ni-Fe carbon monoxide dehydrogenase 2 (ChCODH2), Carboxydothermus hydrogenoformans, locus Chy_0085; synthesized DNA in pET28a; Carries Fe-S and Ni-Fe clusters (B, C, D); also called ChCODH2 WT; WT; source: E. coli BL21(DE3) with pRKISC, purified (Ni-NTA; size-exclusion chromatography)
binding result [1]: binds
